From the supplement of paper PMC9170038

system: K4 kissing-loop RNA reporter; test: apparent KD of K4 kissing-loop reporter; higher = weaker reporter binding; details: Eterna round: R107; input ligand: arginine 13.2 mM
Protocol: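 RNA-MaP round R107: designed RNA switches with theophylline, tryptophan, arginine or FMN aptamers are transcribed on-chip within common flanks. They are titrated with a labelled K4 kissing-loop RNA reporter in RNA-MaP buffer (100 mM Tris pH 7.5, 80 mM KCl, 4 mM MgCl2), without ligand or with the indicated ligand. Median apparent KD per design.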
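Also: bound reporter read as fluorescence of individual clusters on recovered sequencing chips by microscopy, with normalized cluster intensities fitted with a binding model.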

Sequence | apparent KD of K4 kissing-loop reporter
GCGGACAUUCGCAGUGAUGUUGCGACGGAAGGAGCGGAUGAAAAUCCAGGUAGGUCGCCGACAAAAUUAAUUUUAAUGUGUUCGC [#03 K4 Arginine A Same State] | 325 nM
UUAUAUAUAUCAGAUACCAGUAUAAUGGAAACAAAUUAUGUUAUGAGUGAUGUUCAUGUAUGCCCUUGGCAGCUGGUAUGGGUUU [KL-XTheo-B20] | 322 nM
AAUAAUAUACAAAGGCGAACGAAUAGGGAAGGAGCGCGAUAUAACGCAGGUAGGUCGCCCAUAUUUUUAGUGAUGUUAGAGAAUA [E. Arginine A Tesla 1] | 762 nM
AAAGUGUCAGCACGAGUGAUGUUCGACGAUACCAGCCUCGAUAGAGGCCCUUGGCAGCGUAAAAGUCAAGGGCUGGCACAUAAAA [#SwitchBubble 5 #K4Early] | 751 nM
GGUAGCAUGGCGGCCGCCACUAUCCUUCAUGGUUGACAUUAAGGAUAGCAUAGUGAUGUUAUGAAUAGGACCGGGCCAUGCUACC | 136 nM
UUAGAGAUCUCAGGAUAUGAGUGAUGUUGAUAUCAAGAUCUGAGAUAGAAUUCUAUCUCAGAUCAAUCAGAAGGGAGAUCUCAUU [AK1.3 Exc FMN B] | 109 nM
AAAUUUGCUCAUGAUACCAGCCAGUGAUGUUGGUUGGUCCACCGUGUCCGAACAUUAAGCGGCCCUUGGCAGCAUGAUGCGCGUA [Ininveaen] | 105 nM
GUAUCGCUAGGAGGAUAUUUCAAUUCGCCUAUAAAUGGUGAUACGGAGUGAUGUUCCGAUUUACGGAAAGAAGGCCUAGUGAUAC [FMN B 8] | 275 nM
AGGGCACUGGCGGCCGCCACUUUUCGUGCGAACCAAAGCUAGUGAUGUUGGCUCCCUAGUUGCAAAAGGACCGGGCCGUUCAUCU [theeternabot_sameState_KL_Trp_B_37] | 195 nM
UUUUUAUGCAGUGAUGUUGCUAAUAUAACAGAGGAUAUGCAUUAAUGCAGAAGGCUGAAAUACUAUACUUUAAUAAAUUAAAUUU [JR_SSFMNA_Sub014] | 109 nM
GGACGCCGGUCGGCCGCCACUCACAGCAGUGAUGUUGCUGAGAAUGUAGCGGAGUGAUGUUCCGAGAGGACCGGGACUGCAGUUU [Same State Tryptophan B GF 9] | 157 nM
UCCUGCAGUCUGCCACGAAAGUGGAUUGAUACCAGAGUCGAAAGACUCCCUUGGCAGCGAGUGAUGUUCGAAGCAGGUAAAUAAA [MatMod 1 - Jieux - Exclusion - Theophylline A] | 204 nM
GCUAGCAAUGCAGGAUAUUAAAACGAGUGAUGUUCGGUACCGAGGAUGGGAAACCAUCCUCGGUAAUAAGAAGGGCAUUGCUAGC | 182 nM
CGGAGUCGCGGAAGGAGCGCUCGAUAGACAAGUUGAUCGUGCCGUGGUCGAGUGAUGUUCGAGCAGGUAGGUCGCCGUCGGUCCC [Cexeatedma] | 204 nM
CGUACGGUUUCUUUCUUUCCGUACGAGUGCCGAGGACCGGUACGGCCGCCACUCGCUACAGCCUAGUGAUGUUAGGCGAUUCUUU | 117 nM
CAUACGCAUGGAGGAUAUGAGAUUUCUCAUGUCAUUUAAUAUUCUCAGUGAUGUUGAGAUUUUGGCUCAGAAGGCCAUGUGUAUG [Ex FMN B 19] | 249 nM
GCUAUAGUGUUAGAUACCAGUAUCCUGCAAAGCCAUCAAAUGCAGUGAUGUUGCAUAAACUACCCUUGGCAGCUAAUUGGGCUCU [theeternabot_exclusion_KL_Theo_B_49] | 201 nM

Sequence | apparent KD of K4 kissing-loop reporter
AUGUCUUAUAAACUCAUGGUUUCGAUCGAUACCAGUAGCGAGAGUUACCCUUGGCAGCGACAUGAGUGAUGUUCAUGUACGAAGA [KL-XTheoA5] | 98.7 nM
AUUGUACAGGGAAGGAGCGUCGACCAGUGAUGUUGGAGUUAAAUACCAGUGAUGUUGGUUAGGCAGGUAGGUCGCCCUCAAGUAG [#10 K4 Arginine B Exclusion] | 126 nM
CCAAUCUUUUACGAUACCAGUCUAAUAUAUUUAAUCAAAACCCUCGCCGAGUGAUGUUCGGACCCUUGGCAGCGUUUGCGAGAGG [xssgstkmullin] | 365 nM
UGGAGUUGACGAAAAGUCAACUCCUGGGAAGGAGCGGACGAAAGUCCAGGUAGGUCGCUCACUACCAGUGAUGUUGGUACUUAAA | 350 nM
AAUUUAUUAACUGAUACCAGACUUUAUUAUUUGUAAAUUACUAGUGAUGUUAGUGUUUCUGUCCCUUGGCAGCAGUAUUUAUUAA [JR_SSTheophyB_Sub024] | 142 nM
CUUAGGUCAGUUACCCGAGUGAUGUUCUGUCGAGGACCGGUACGGCCGCCACUCGCUCAUUAUCGGUCUGACAAAGAGCUGGCUU [theeternabot_exclusion_KL_Trp_A_9] | 56.4 nM
UUAUAUAUAUCAGAUACCAGCAUAAUGGAAACAAAUUAUGUUAUGAGUGAUGUUCAUGUAUGCCCUUGGCAGCUGGUAUGGGUUU [KL-XTheo-B19] | 412 nM
GUUUGCCGGUCCCGGAGUGAUGUUCCGGAUACCAGCAACUUCCUUUGCCCUUGGCAGCCGUAGCUAUACCGGGUGGCAGCUUCAG [Anresoenus] | 89.5 nM
GCAGUGAUGUUGCACGAGUAGGCUAGAGUACGAGGACCGGUACGGCCGCCACUCGUACGGAAGUCGCUAAUUUAUGGAAUGGUGA [#05 K4 Tryptophan A Same State] | 473 nM
CGCCAGGGUGAAGGAUAUCCGUCUGAUUGAGCGCAGUGAUGUUGCGCGAUUCGUUCAUCGCUCGGAGGAGAAGGUCAGAUAACUC [theeternabot_sameState_KL_FMN_B_3] | 121 nM
GGCAGUGAUGUUGCCAGUGGCAGAUGCGAAGGAGCGUGGUGAGACACAGGUAGGUCGCGCAUUGAAAUUGCUGUCACUAAAAUGC [#3] | 346 nM
GCCGUAGAUUGAAGGAGCGGGCCGUAGUGAUGUUACGCCAAUUUAUCUUUUCUUGAUGUGGCCCAGGUAGGUCGCAAUCUACGGC | 204 nM
CUUGAUCGAGGAAGGAGCGGGCCGUCAUUGAGCGCAGUGAUGUUGCGUUCGACUAGUCGAGCCCAGGUAGGUCGCCUGGAGUAAG [Lazalaa] | 76.1 nM
UCGUUAAAAGCGGCCGCCACUGCCAGAGCUCUGGAAAAGGCUGGAGUGAUGUUCUGCCUAGUAGACAGGACCGGGCUAUUGGAUU [theeternabot_sameState_KL_Trp_B_29] | 422 nM
UGUCAUUGGUCUGAUACCAGUUGAUGACGAAUACGUCAACUGGAGUGAUGUUCCAAUAACAACCCUUGGCAGCAGACCGAUGACU [MAT - Same State Theophlline B - Mod of Eli - D3] | 494 nM
UGAUACCAGACGGCCGCCACUCCUGCAGUCAAAAGACUGCUAAAGGAAAUCGUCCAGUGAUGUUGGAGGACCGGGUCUGGUAUCU [TrypBX 16 #SwitchBubble #Palindromic #StaticStem] | 719 nM

same assay, conditions: Eterna round: R107; input ligand: none

Sequence | apparent KD of K4 kissing-loop reporter
UGAUACCAGACUGAUACCAGCAAGUGAUGUUUGUUGAUCAAAAGCAGUCAAAGACUGCUUUGCCCUUGGCAGCAGUCUGGUAUCU [#10 K4 Theophylline B Exclusion] | 166 nM
GGUAGCAUGGCGGCCGCCACUUACACCACGGCCCUUCUAGUGAUGUUAGAGUGGAUUAUUCCGUUAAGGACCGGGCCAUGCUACC | 745 nM
UUUCCAGAUAAGUGGGAACGCUCCAUAACAGAGGAUAUCAGAGCGCUGAGAAGGCUGUUUUACAGUGAUGUUGUAAGUGUGGAGC [#10 K4 FMN A Same State] | 299 nM
AGAGUUAUGAGAGGAUAUGCGGCUAGUACUCAAAGAGUACUAGCAGCAGAGUGAUGUUCUGUGAAAGCAGAAGGUUCAUAACUCA [#06 K4 FMN B Same State] | 627 nM
GAGGUAUGCGCAGUGAUGUUGCGACGAGAUACCAGUCGUUCUGUCGACCCUUGGCAGCUCCCACCAGACGUACGAGUUUGUGUUG [theeternabot_sameState_KL_Theo_A_10] | 113 nM
ACACUUUACGUAGGAUAUGCGACGAGUGAUGUUCGUCAGGCGGCUUGAGCUUAAACAGGCCGUCUAGCAGAAGGACGGGCAGUGU [Diorsodi] | 192 nM
AAUUUUAAUAAUAAAUAAUAAAUAAAUGAUACCAGUAUUUUUUUUUACCCUUGGCAGCGUAUAUAAGGGCAGUGAUGUUGUCAAA [whbob_SS_Theo_A_w58] | 153 nM
UGGGCCGCCUGAGGAUAUAGAGACGAGUGAUGUUCGUGGAUAAGAGCCAGUGAUGUUGGGUUAUUUCUAGAAGGCGGGCGAACUU [Exclusion FMN B GF9] | 98.6 nM
ACGUCCGGAUUGAUCGUGGGCAUGGUCGAUACCAGUAGUUUAAUCUACCCUUGGCAGCGACAUGAGUGAUGUUCAUGUGCGGUGA [#14 K4 Theophylline A Exclusion] | 188 nM
UGGAGUUGACGAAAAGUCAACUCCAGAGAAGGAGCGGACGAAAGUCCAGGUAGGUCGCUCACUACCAGUGAUGUUGGUACUAAAA | 204 nM
GCGGACAUUCGCAGUGAUGUUGCGACGGAAGGAGCGGAUGAAAAUCCAGGUAGGUCGCCGACAAAAUUAAUUUUAAUGUGUUCGC [#03 K4 Arginine A Same State] | 437 nM
UUAUAUAUAUCAGAUACCAGUAUAAUGGAAACAAAUUAUGUUAUGAGUGAUGUUCAUGUAUGCCCUUGGCAGCUGGUAUGGGUUU [KL-XTheo-B20] | 362 nM
AAUAAUAUACAAAGGCGAACGAAUAGGGAAGGAGCGCGAUAUAACGCAGGUAGGUCGCCCAUAUUUUUAGUGAUGUUAGAGAAUA [E. Arginine A Tesla 1] | 766 nM
AAAGUGUCAGCACGAGUGAUGUUCGACGAUACCAGCCUCGAUAGAGGCCCUUGGCAGCGUAAAAGUCAAGGGCUGGCACAUAAAA [#SwitchBubble 5 #K4Early] | 1300 nM
GGUAGCAUGGCGGCCGCCACUAUCCUUCAUGGUUGACAUUAAGGAUAGCAUAGUGAUGUUAUGAAUAGGACCGGGCCAUGCUACC | 163 nM
UUAGAGAUCUCAGGAUAUGAGUGAUGUUGAUAUCAAGAUCUGAGAUAGAAUUCUAUCUCAGAUCAAUCAGAAGGGAGAUCUCAUU [AK1.3 Exc FMN B] | 194 nM
AAAUUUGCUCAUGAUACCAGCCAGUGAUGUUGGUUGGUCCACCGUGUCCGAACAUUAAGCGGCCCUUGGCAGCAUGAUGCGCGUA [Ininveaen] | 116 nM
GUAUCGCUAGGAGGAUAUUUCAAUUCGCCUAUAAAUGGUGAUACGGAGUGAUGUUCCGAUUUACGGAAAGAAGGCCUAGUGAUAC [FMN B 8] | 283 nM
AGGGCACUGGCGGCCGCCACUUUUCGUGCGAACCAAAGCUAGUGAUGUUGGCUCCCUAGUUGCAAAAGGACCGGGCCGUUCAUCU [theeternabot_sameState_KL_Trp_B_37] | 302 nM
UUUUUAUGCAGUGAUGUUGCUAAUAUAACAGAGGAUAUGCAUUAAUGCAGAAGGCUGAAAUACUAUACUUUAAUAAAUUAAAUUU [JR_SSFMNA_Sub014] | 85.5 nM
GGACGCCGGUCGGCCGCCACUCACAGCAGUGAUGUUGCUGAGAAUGUAGCGGAGUGAUGUUCCGAGAGGACCGGGACUGCAGUUU [Same State Tryptophan B GF 9] | 198 nM
